Measurements taken from article PMC4538835.

Columns and labels:
Experiment in all cases: fluorescence polarisation
[1] = biological target: MED25 ACID/PTOV domain (residues 391 to 548) (human) (UniProt Q71SY5)
[2] = biological target: TAMRA-labelled ERM_(38–68) W57L (human) (UniProt P41161)
[3] = biological target: TAMRA-labelled ERM_(38–68) F47L/W57L (human) (UniProt P41161)
[4] = biological target: TAMRA-labelled ERM_(38–68) (human) (UniProt P41161)

Row | Substance | IC50 [1] | Kd [2] | Kd [3] | Kd [4]
1 | ERM_(38–68) peptide (unlabelled by dye) (from UniProt P41161 38-68) | 1.5 µM | – | – | –
2 | MED25 ACID/PTOV domain (residues 391 to 548) (from UniProt Q71SY5 391-548) (domain or fragment) | – | 4.8 µM | 8.3 µM | 0.6 µM
